From paper PMC2974439 (Biochemistry, 2010)
Values belong to the molecule of their own block, whether it stands above or below them.

Key:
H6-CmnO = experiment: co-purification after co-expression
EntF (EntF-H6) = EntF (EntF-H6) (Escherichia coli, UniProt P11454); experiment: substrate activation assay; type: biochemical; settings: without YbdZ; two values for two different preparations
EntF+YbdZ = EntF+YbdZ (Escherichia coli, UniProt P11454); experiment: substrate activation assay; type: biochemical; settings: co-purified with YbdZ; two values for two different preparations
[1] = substrate: O=C(O)c1cccc(O)c1O; experiment: substrate activation assay; type: biochemical, Escherichia coli; settings: without YbdZ

EntF+YbdZ, sequence (P11454 whole entry): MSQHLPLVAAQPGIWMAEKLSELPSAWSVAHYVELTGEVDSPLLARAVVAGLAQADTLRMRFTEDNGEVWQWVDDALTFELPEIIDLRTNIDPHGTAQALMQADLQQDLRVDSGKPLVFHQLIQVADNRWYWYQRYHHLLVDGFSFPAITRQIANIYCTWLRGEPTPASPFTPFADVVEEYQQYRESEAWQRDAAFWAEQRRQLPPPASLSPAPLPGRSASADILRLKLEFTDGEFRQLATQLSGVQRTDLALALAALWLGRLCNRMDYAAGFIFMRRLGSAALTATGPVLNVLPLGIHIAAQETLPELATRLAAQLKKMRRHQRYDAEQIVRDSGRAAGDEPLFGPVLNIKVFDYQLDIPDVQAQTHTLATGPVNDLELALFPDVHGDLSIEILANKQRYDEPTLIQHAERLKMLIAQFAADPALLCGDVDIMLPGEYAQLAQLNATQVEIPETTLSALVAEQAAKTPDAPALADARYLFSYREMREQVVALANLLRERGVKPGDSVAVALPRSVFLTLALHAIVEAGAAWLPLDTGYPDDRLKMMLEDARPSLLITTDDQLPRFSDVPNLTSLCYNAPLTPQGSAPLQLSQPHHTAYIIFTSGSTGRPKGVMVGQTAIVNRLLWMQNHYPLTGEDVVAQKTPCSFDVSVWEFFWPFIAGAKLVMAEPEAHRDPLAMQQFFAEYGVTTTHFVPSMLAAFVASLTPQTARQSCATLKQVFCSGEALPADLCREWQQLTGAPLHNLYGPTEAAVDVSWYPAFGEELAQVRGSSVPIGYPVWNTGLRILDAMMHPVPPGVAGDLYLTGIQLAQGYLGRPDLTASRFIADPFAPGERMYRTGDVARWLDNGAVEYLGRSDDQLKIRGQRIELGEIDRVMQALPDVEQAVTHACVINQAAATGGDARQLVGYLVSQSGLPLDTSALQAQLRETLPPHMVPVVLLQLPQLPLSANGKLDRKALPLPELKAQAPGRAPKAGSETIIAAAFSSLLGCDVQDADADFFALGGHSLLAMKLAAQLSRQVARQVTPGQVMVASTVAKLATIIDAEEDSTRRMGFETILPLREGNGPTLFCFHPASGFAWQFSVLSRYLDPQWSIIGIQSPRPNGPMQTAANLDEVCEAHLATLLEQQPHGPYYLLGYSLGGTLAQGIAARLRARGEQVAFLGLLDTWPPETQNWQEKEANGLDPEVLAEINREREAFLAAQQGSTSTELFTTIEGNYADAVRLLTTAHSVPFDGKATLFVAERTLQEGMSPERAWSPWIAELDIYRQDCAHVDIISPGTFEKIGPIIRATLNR
EntF+YbdZ, sequence (P18393 2-72 partner limits assumed): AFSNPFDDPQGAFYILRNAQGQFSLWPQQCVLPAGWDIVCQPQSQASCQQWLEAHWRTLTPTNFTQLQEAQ
EntF (EntF-H6), sequence (P11454 whole entry): as the sequence (P11454 whole entry) above

- stoichiometry N (mol CmnN per mol H6-CmnO) (H6-CmnO): 0.42
Molecule: CmnN (natural protein)

Molecule: N[C@@H](CO)C(=O)O [L-Ser]
- Km ^a (EntF (EntF-H6)): 7162.1 ± 413.5, 4589.5 ± 313.0 μM
- Km ^a (EntF+YbdZ): 655.9 ± 53.0, 240.1 ± 46.7 μM

B1: EntE (H6-EntE) (Escherichia coli K-12) (protein)
chain: MSIPFTRWPEEFARRYREKGYWQDLPLTDILTRHAASDSIAVIDGERQLSYRELNQAADNLACSLRRQGIKPGETALVQLGNVAELYITFFALLKLGVAPVLALFSHQRSELNAYASQIEPALLIADRQHALFSGDDFLNTFVTEHSSIRVVQLLNDSGEHNLQDAINHPAEDFTATPSPADEVAYFQLSGGTTGTPKLIPRTHNDYYYSVRRSVEICQFTQQTRYLCAIPAAHNYAMSSPGSLGVFLAGGTVVLAADPSATLCFPLIEKHQVNVTALVPPAVSLWLQALIEGESRAQLASLKLLQVGGARLSATLAARIPAEIGCQLQQVFGMAEGLVNYTRLDDSAEKIIHTQGYPMCPDDEVWVADAEGNPLPQGEVGRLMTRGPYTFRGYYKSPQHNASAFDANGFYCSGDLISIDPEGYITVQGREKDQINRGGEKIAAEEIENLLLRHPAVIYAALVSMEDELMGEKSCAYLVVKEPLRAVQVRRFLREQGIAEFKLPDRVECVDSLPLTAVGKVDKKQLRQWLASRASA
- Km [1]: 2.9 ± 0.4 µM
